According to paper PMC9351570:

Biological target: nucleosome: recombinant Xenopus laevis histone octamer assembled on 601 DNA with flanking DNA (Xenopus laevis)

“mutant INO80 complex purified from yeast lacking Arp5 (from UniProt P53115 1-1489; P40154 1-320; Q12386 1-881)” gave a nucleosome sliding, native gel remodeling assay, kobs; 601 + 80 WT nucleosome of 0.006 min⁻¹.
